± gives the uncertainty stated by the source.
B1: Ankyrin-1, residues 1405 to 1484; numbered along this chain, P16157 (parent)
chain: MKMAVISEHLGLSWAELARELQFSVEDINRIRVENPNSLLEQSVALLNLWVIREGQNANMENLYTALQSIDRGEIVNMLE
B2: GAS2-like protein 1, residues 209 to 276; numbered along this chain, Q99501 (parent)
chain: DELVREILGRCTCPDQFPMIKVSEGKYRVGDSSLLIFVRVLRSHVMVRVGGGWDTLEHYLDKHDPCRC

Variants of: B1
Assay: abundance fitness (aPCA) (normalised: wild type 0, dead -1); higher = more abundant; growth selection in yeast, the domain comes from the species named
Settings: Homo sapiens

Variant | abundance fitness
V33L | -0.001 ± 0.061
Q22Y | -0.187 ± 0.15
Q22E | -0.043 ± 0.071
Q22P | -0.522 ± 0.14
Q22A | -0.066 ± 0.063
Q22C | 0.016 ± 0.078
A15D | -0.209 ± 0.11
Q56G | -0.035 ± 0.05
Q56T | 0.158 ± 0.12
A45Y | -0.565 ± 0.15
A45D | -0.306 ± 0.08
L40I | 0.061 ± 0.14
L40T | -0.081 ± 0.085
L40R | 0.089 ± 0.059
L40Y | -0.189 ± 0.11
L40P | -0.428 ± 0.075
L40K | 0.182 ± 0.06
P36I | -0.459 ± 0.21
P36M | -0.064 ± 0.34
L46Y | -0.614 ± 0.39
L46E | -0.987 ± 0.49
L46Q | -1.13 ± 0.41

Variants of: B2
Assay: as above
Settings: Homo sapiens

Variant | abundance fitness
L60P | -0.872 ± 0.12
L60N | -0.885 ± 0.18
L60Y | -0.822 ± 0.33
L60Q | -0.708 ± 0.19
L60W | -0.9 ± 0.25
L60R | -0.889 ± 0.13
L60M | -0.572 ± 0.092
L60S | -0.928 ± 0.11
L60T | -0.994 ± 0.21
P65N | -0.498 ± 0.27
P65M | -0.946 ± 0.19
P65S | -0.898 ± 0.11
P65R | -0.625 ± 0.072
P65H | -0.605 ± 0.22
P65I | -0.711 ± 0.4
P65K | -0.734 ± 0.12
P65W | -0.857 ± 0.14
P65E | -0.688 ± 0.16
P65A | -0.591 ± 0.11
P65Q | -0.771 ± 0.17
P65D | -0.757 ± 0.31
P65G | -0.837 ± 0.11
P65Y | -0.826 ± 0.16
P65V | -0.904 ± 0.15
P65C | -0.819 ± 0.22

Variant | abundance fitness
H63P | -0.455 ± 0.15
H63R | -0.162 ± 0.046
H63Q | -0.555 ± 0.18
H63M | -0.145 ± 0.083
H63A | -0.434 ± 0.12
H63Y | -0.081 ± 0.057
H63L | -0.18 ± 0.052
H63F | -0.015 ± 0.092
H63G | -0.719 ± 0.12
H63V | -0.017 ± 0.061
H63W | -0.233 ± 0.09
H63T | -0.322 ± 0.16
H63K | -0.077 ± 0.14
H63C | -0.377 ± 0.12
H63E | -0.11 ± 0.17
C66R | -0.797 ± 0.093
C66W | -1.01 ± 0.2
C66F | -0.928 ± 0.21
C66D | -0.502 ± 0.16
C66Y | -0.594 ± 0.095
C66M | -0.734 ± 0.12
C66K | -0.746 ± 0.13
C66Q | -0.608 ± 0.13
C66I | -0.722 ± 0.17
C66V | -0.97 ± 0.14

Variant | abundance fitness
C66S | -0.621 ± 0.083
C66G | -0.848 ± 0.12
C66H | -0.822 ± 0.4
C66P | -0.763 ± 0.15
C66A | -0.878 ± 0.085
C66T | -0.751 ± 0.083
C66E | -0.693 ± 0.15
C66L | -0.875 ± 0.072
D61E | 0.105 ± 0.045
D61K | -0.249 ± 0.094
D61F | -0.203 ± 0.056
D61H | -0.274 ± 0.081
D61I | -0.3 ± 0.066
D61G | -0.176 ± 0.041
D61L | -0.063 ± 0.04
D61M | -0.073 ± 0.039
D61Q | -0.123 ± 0.086
D61N | -0.094 ± 0.054
D61P | -0.729 ± 0.22
D61R | -0.212 ± 0.048
D61W | -0.305 ± 0.049
D61A | -0.074 ± 0.043
D61S | -0.146 ± 0.045
D61T | -0.183 ± 0.054
D61V | -0.246 ± 0.034

Variant | abundance fitness
D61Y | -0.068 ± 0.061
C68E | -0.024 ± 0.16
C68H | 0.058 ± 0.086
C68L | 0.132 ± 0.05
C68W | -0.051 ± 0.086
C68I | -0.016 ± 0.21
C68G | 0.176 ± 0.12
C68D | 0.046 ± 0.19
C68F | 0.015 ± 0.078
C68S | 0.118 ± 0.078
C68V | 0.088 ± 0.043
C68N | -0.078 ± 0.18
C68Y | 0.047 ± 0.06
C68A | 0.177 ± 0.066
C68T | 0.225 ± 0.11
C68P | -0.331 ± 0.12
R67Y | -0.995 ± 0.28
R67P | -0.902 ± 0.2
R67E | -0.847 ± 0.29
R67I | -0.638 ± 0.21
R67C | -0.92 ± 0.15
R67S | -0.789 ± 0.09
R67V | -0.975 ± 0.14
R67N | -1.01 ± 0.35
R67W | -1.02 ± 0.25

Variant | abundance fitness
R67G | -0.945 ± 0.19
R67L | -0.706 ± 0.09
R67K | -0.616 ± 0.12
R67M | -0.899 ± 0.13
R67H | -0.931 ± 0.48
R67D | -0.849 ± 0.17
R67Q | -0.882 ± 0.15
R67A | -0.763 ± 0.17
K62V | 0.092 ± 0.038
K62L | -0.004 ± 0.04
K62A | -0.069 ± 0.049
K62H | -0.298 ± 0.11
K62M | -0.038 ± 0.049
K62Q | 0.137 ± 0.09
K62C | -0.25 ± 0.052
K62N | -0.091 ± 0.14
K62E | 0.054 ± 0.048
K62D | -0.234 ± 0.064
K62T | -0.048 ± 0.049
K62F | -0.27 ± 0.11
K62G | -0.337 ± 0.045
K62W | -0.512 ± 0.076
K62S | -0.214 ± 0.046
K62R | -0.065 ± 0.042
K62P | -0.832 ± 0.12

Variant | abundance fitness
K62Y | -0.242 ± 0.073
K62I | -0.078 ± 0.096
D64E | -0.668 ± 0.12
D64C | -0.319 ± 0.093
D64M | -0.888 ± 0.13
D64L | -0.812 ± 0.088
D64F | -0.419 ± 0.11
D64G | -0.792 ± 0.071
D64K | -1.12 ± 0.3
D64Q | -0.93 ± 0.14
D64R | -0.659 ± 0.067
D64N | -0.86 ± 0.15
D64H | -0.511 ± 0.14
D64A | -1.03 ± 0.18
D64Y | -0.936 ± 0.14
D64T | -0.869 ± 0.21
D64P | -0.824 ± 0.18
D64I | -0.75 ± 0.15
D64S | -1.02 ± 0.21
D64V | -0.927 ± 0.14

From the Human Domainome abundance scans (Beltran et al. 2025)
